The test has as its target Cyanophora paradoxa photosystem I monomer2 (PSI-monomer unit lacking PsaK) (Cyanophora paradoxa (endogenous, strain NIES-547)) (UniProt P48112). As to the kind of experiment: cryo-EM structure; PSI tetramer purified from Cyanophora thylakoids; GraFix (glutaraldehyde cross-linked) tetramer at 3.8 Å with C2 symmetry; unfixed wild-type tetramer at 4.0 Å; focused maps of monomer1 and monomer2 at 3.3 Å and 3.2 Å; 0.03% β-DDM, 50 mM Mes-NaOH pH 6.5.
Chain of UniProt P48112 (P48112 whole entry, looked up): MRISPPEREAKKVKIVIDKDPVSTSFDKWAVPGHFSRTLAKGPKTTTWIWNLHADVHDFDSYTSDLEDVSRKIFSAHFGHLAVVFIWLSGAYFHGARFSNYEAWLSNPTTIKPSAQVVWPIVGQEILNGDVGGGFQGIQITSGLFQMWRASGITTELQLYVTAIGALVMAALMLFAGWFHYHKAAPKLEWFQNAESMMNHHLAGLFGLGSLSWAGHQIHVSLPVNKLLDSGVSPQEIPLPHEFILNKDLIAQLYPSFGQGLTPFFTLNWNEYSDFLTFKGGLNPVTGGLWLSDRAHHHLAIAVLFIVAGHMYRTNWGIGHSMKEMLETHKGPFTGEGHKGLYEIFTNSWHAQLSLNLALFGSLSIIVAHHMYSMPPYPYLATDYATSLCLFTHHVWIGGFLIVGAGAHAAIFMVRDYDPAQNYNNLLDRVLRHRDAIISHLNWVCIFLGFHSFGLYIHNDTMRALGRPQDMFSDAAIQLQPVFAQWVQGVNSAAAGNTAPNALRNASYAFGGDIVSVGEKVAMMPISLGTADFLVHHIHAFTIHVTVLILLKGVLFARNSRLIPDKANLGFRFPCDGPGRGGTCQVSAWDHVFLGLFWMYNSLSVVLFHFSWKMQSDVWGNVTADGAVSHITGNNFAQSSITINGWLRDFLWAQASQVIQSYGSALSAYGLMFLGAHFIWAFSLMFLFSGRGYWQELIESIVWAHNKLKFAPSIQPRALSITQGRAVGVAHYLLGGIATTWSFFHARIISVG

As for “Cyanophora paradoxa photosystem I monomer1 (PSI-monomer unit with PsaK) (from UniProt P48112 1-752; P31173 1-81; Q9T4W8 54-220; P48114 1-70; P48115 26-186; P48116 1-35; P48117 1-40; P48185 1-31) (complex)”, the stoichiometry N (PSI-monomer units) came to 4.

For the origin of these results see publication PMC8967866.
